Reference: patent US20210032312A1 (Janssen / Centocor, published 2021)
Changes are numbered by the printed parent chain. One block for each binder: values may come before it.

Key:
In house human CD8A-Fc = molecular target: T1, In house human CD8A-Fc (human, UniProt P01732 22-182, limits assumed); assay: SPR (ProteOn), captured hCD8A-Fc
T1 construct: Captured on goat anti-human Fc on a ProteOn GLC chip; also called hCD8A-Fc; recombinant human CD8 alpha; not shown: linker with flag (and polyhistidine) tag and Fc of human IgG1
T1 sequence (P01732 22-182 limits assumed): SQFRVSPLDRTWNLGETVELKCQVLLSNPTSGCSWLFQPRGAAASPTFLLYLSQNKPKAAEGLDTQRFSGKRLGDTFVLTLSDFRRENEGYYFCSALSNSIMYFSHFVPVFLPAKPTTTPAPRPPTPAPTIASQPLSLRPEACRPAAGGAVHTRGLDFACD
Description: Purified anti-CD8A FN3 domains were subjected to off-rate analysis using a Proteon surface plasmon resonance instrument in order to pick clones with the slowest off-rates for further characterization.
The immobilized GAH-Fc IgG densities averaged about 6000 Response Units (Ru) with less than 1% variation among different channels. In house human CD8A-Fc was captured in vertical orientation at 3 different ligand densities, 10, 5, 2.5 μg/ml for 5 minutes at 30 ul/minute flowrate. All FN3 domains were normalized to a 3 μM concentration, and tested for binding in horizontal orientation. All 6 analyte channels were used for FN3 domains to maximize the screening throughput. The dissociation phase was monitored for 15 minutes at a flow rate of 100 μl/min using PBST as running buffer. […] Data analyses were performed using Bio-Rad ProteOn Manager software (version 3.1.0.6). Raw data were double referenced by subtraction of the interspot (empty chip surface, no protein immobilized or captured) signals to correct the non-specific binding of the FN3 domain to the pre-coated GAH-Fc IgG surface, followed by a double correction using empty channel L6 where no hCD8A-Fc was captured. The processed binding data were locally fit to a 1:1 simple Langmuir binding model to extract the koff for each FN3 domain binding to captured hCD8A-Fc.

[1] = molecular target: T2, cynomolgus monkey CD8A on primary cynomolgus monkey CD8+ T cells (cynomolgus monkey, UniProt P01732 23-235 (human entry)); assay: flow cytometry, cyno CD8+ T cells, 2 uM FN3
T2 construct: also called Cyno CD8alpha
T2 sequence (P01732 other isoform, or with tags, fused parts or gaps limits assumed): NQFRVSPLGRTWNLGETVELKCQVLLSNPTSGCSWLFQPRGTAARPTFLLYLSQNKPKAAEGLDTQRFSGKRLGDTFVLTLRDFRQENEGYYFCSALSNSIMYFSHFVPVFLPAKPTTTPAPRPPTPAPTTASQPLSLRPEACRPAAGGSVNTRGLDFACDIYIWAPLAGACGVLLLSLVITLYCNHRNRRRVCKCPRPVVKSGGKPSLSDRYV
Description: (§1) Binding of the 190 ELISA hits to human and cynomologous monkey primary CD8 T cells was assessed by flow cytometry. The FN3 domain molecules were diluted to 2 μM and 0.2 μM in PBS and incubated with human or cynomologous monkey CD8+ T cells in 96-well format. After 1 hour at 4 C, the cells were washed once with PBS and then resuspended with an anti-FN3 domain antibody (PAB25) solution. Following this incubation, the cells were washed twice with PBS and a PE conjugated secondary antibody and a viability dye were added. Finally, cells were washed and resuspended in PBS for flow cytometric analysis using a BD Canto Instrument. Cells were gating on live cells and median fluorescence intensity of the bound Centyrins (PE channel) was calculated using Cytobank software.

[2] = molecular target: T3, human CD8 alpha (CD8A) on primary human CD8+ T cells (human, UniProt P01732 22-235); assay: flow cytometry, human CD8+ T cells, 2 uM FN3
T3 construct: whole, on cells; also called hCD8A
T3 sequence (P01732 22-235): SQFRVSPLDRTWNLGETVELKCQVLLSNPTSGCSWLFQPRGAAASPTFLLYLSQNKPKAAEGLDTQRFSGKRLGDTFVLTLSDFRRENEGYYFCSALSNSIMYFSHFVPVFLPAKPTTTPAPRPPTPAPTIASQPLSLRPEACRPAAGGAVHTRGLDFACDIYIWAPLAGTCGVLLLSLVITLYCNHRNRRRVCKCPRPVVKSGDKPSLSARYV
Description: as §1

[3] = molecular target: T2, cynomolgus monkey CD8A on primary …; assay: flow cytometry, cyno CD8+ T cells, 0.2 uM FN3
Description: as §1

[4] = molecular target: T3, human CD8 alpha (CD8A) on primary human …; assay: flow cytometry, human CD8+ T cells, 0.2 uM FN3
Description: as §1

koff (In house human CD8A-Fc): 0.0001 s⁻¹
Cyno T-cell Binding 2 uM (MFI) [1]: 18000 MFI
Human T-cell Binding 2 uM (MFI) [2]: 5930 MFI
Cyno T-cell Binding 0.2 uM (MFI) [3]: 3840 MFI
Human T-cell Binding 0.2 uM (MFI) [4]: 2880 MFI
B1: P282BR9P1357_B2 (designed binder)
chain: LPAPKNLVVSRVTEDSARLSWNPSEDPQRFDSFLIQYQESEKVGEAIVLTVPGSERSYDLTGLKPGTEYTVSIYGVDVKWEGNRPVASNPLSAIFTT
notes: FN3 domain

koff (In house human CD8A-Fc): 0.000458 s⁻¹
Cyno T-cell Binding 2 uM (MFI) [1]: 24500 MFI
Human T-cell Binding 2 uM (MFI) [2]: 9780 MFI
Cyno T-cell Binding 0.2 uM (MFI) [3]: 5110 MFI
Human T-cell Binding 0.2 uM (MFI) [4]: 2900 MFI
B2: P282BR9P1357_C10 (designed binder)
chain: B1 chain with N22W, P23S, S24N, E25D, D26N, P27R, Q28P, R29I
notes: FN3 domain

koff (In house human CD8A-Fc): 0.00021 s⁻¹
Cyno T-cell Binding 2 uM (MFI) [1]: 10600 MFI
Human T-cell Binding 2 uM (MFI) [2]: 6730 MFI
Cyno T-cell Binding 0.2 uM (MFI) [3]: 4100 MFI
Human T-cell Binding 0.2 uM (MFI) [4]: 2590 MFI
B3: P282BR9P1357_E5 (designed binder)
chain: LPAPKNLVVSRVTEDSARLSWWPRKYQRPFDSFLIQYQESEKVGEAIVLTVPGSERSYDLTGLKPGTEYTVSIYGVDIEWIGNRPIASNPLSAIFTT
notes: FN3 domain

koff (In house human CD8A-Fc): 9.02e-05 s⁻¹
Cyno T-cell Binding 2 uM (MFI) [1]: 114000 MFI
Human T-cell Binding 2 uM (MFI) [2]: 48900 MFI
Cyno T-cell Binding 0.2 uM (MFI) [3]: 34700 MFI
Human T-cell Binding 0.2 uM (MFI) [4]: 8480 MFI
B4: P282DR9P1359_F5 (designed binder)
chain: LPAPKNLVVSRVTEDSARLSWTAPDAAFDSFQIAYPEWPPPGEAIVLTVPGSERSYDLTGLKPGTEYFVIIQGVKGGVESWPLSAIFTT
notes: FN3 domain

koff (In house human CD8A-Fc): 0.000638 s⁻¹
Cyno T-cell Binding 2 uM (MFI) [1]: 70300 MFI
Human T-cell Binding 2 uM (MFI) [2]: 21100 MFI
Cyno T-cell Binding 0.2 uM (MFI) [3]: 7770 MFI
Human T-cell Binding 0.2 uM (MFI) [4]: 2110 MFI
B5: P282DR9P1359_A8 (designed binder)
chain: B4 chain with Q32R, P40V, P41Q, Q72Y, V78E, E79L, W81P
notes: FN3 domain

koff (In house human CD8A-Fc): 8.12e-05 s⁻¹
Cyno T-cell Binding 2 uM (MFI) [1]: 88000 MFI
Human T-cell Binding 2 uM (MFI) [2]: 32200 MFI
Cyno T-cell Binding 0.2 uM (MFI) [3]: 15500 MFI
Human T-cell Binding 0.2 uM (MFI) [4]: 5950 MFI
B6: P282DR9P1359_A12 (designed binder)
chain: B4 chain with D25E, G42R, I70V, V78E, E79I
notes: FN3 domain

koff (In house human CD8A-Fc): 0.00113 s⁻¹
Cyno T-cell Binding 2 uM (MFI) [1]: 55800 MFI
Human T-cell Binding 2 uM (MFI) [2]: 10100 MFI
Cyno T-cell Binding 0.2 uM (MFI) [3]: 7050 MFI
Human T-cell Binding 0.2 uM (MFI) [4]: 1060 MFI
B7: P282CR9P1358_C2 (designed binder)
chain: B4 chain with Q32K, P40S, P41N, F68A, I70F, Q72W, V78A, E79F, W81N
notes: FN3 domain

koff (In house human CD8A-Fc): 0.000637 s⁻¹
Cyno T-cell Binding 2 uM (MFI) [1]: 85700 MFI
Human T-cell Binding 2 uM (MFI) [2]: 24400 MFI
Cyno T-cell Binding 0.2 uM (MFI) [3]: 13700 MFI
Human T-cell Binding 0.2 uM (MFI) [4]: 3070 MFI
B8: P282CR9P1358_F5 (designed binder)
chain: B4 chain with Q32W, A34S, P41D, Q72W, V78E, E79T, W81A
notes: FN3 domain

koff (In house human CD8A-Fc): 0.000999 s⁻¹
Cyno T-cell Binding 2 uM (MFI) [1]: 25700 MFI
Human T-cell Binding 2 uM (MFI) [2]: 2710 MFI
Cyno T-cell Binding 0.2 uM (MFI) [3]: 1830 MFI
Human T-cell Binding 0.2 uM (MFI) [4]: 511 MFI
B9: P282CR9P1358_C5 (designed binder)
chain: B4 chain with Q32L, P40D, P41S, F68A, I70F, Q72W, V78P, E79L, W81H
notes: FN3 domain

koff (In house human CD8A-Fc): 0.000991 s⁻¹
Cyno T-cell Binding 2 uM (MFI) [1]: 98500 MFI
Human T-cell Binding 2 uM (MFI) [2]: 27800 MFI
Cyno T-cell Binding 0.2 uM (MFI) [3]: 15100 MFI
Human T-cell Binding 0.2 uM (MFI) [4]: 2880 MFI
B10: P282DR9P1359_C10 (designed binder)
chain: B4 chain with Q32A, A34V, P40T, P41D, F68A, I70F, Q72W, V78N, E79Q
notes: FN3 domain
